Each block holds one binder with its values, some of them ahead of it.
How the values were obtained:
Assay in all cases: SPR
[1] = target: T1, doubly T-loop phosphorylated Cdk7/Cyclin H/Mat1_(230-309) ternary complex (human, UniProt P50613 2-346; P51946 1-323; P51948 230-309, phosphoserine at 164; phosphothreonine at 170 | M1 acetylated)
T1 chain 1: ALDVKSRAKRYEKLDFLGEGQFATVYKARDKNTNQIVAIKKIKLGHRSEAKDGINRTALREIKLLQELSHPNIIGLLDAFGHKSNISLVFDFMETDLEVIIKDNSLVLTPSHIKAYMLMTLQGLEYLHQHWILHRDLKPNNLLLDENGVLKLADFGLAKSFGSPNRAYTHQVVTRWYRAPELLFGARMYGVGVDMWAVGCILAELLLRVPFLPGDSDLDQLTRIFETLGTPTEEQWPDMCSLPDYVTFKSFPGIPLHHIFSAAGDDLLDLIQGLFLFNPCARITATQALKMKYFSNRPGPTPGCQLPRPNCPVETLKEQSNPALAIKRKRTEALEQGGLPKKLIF
T1 chain 2: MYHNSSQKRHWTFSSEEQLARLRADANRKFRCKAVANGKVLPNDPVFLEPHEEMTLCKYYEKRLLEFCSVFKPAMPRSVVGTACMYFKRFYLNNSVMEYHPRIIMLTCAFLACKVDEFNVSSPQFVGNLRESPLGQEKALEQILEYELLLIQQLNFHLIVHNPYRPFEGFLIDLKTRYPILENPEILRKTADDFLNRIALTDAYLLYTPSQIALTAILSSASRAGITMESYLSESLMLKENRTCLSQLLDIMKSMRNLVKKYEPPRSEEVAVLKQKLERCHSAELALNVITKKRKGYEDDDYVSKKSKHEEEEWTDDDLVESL
T1 chain 3: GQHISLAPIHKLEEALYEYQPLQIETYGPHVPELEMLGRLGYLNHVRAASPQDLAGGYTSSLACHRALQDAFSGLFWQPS

[2] = target: Cdk7(S164E)/Cyclin H binary complex (human, UniProt P50613 2-346; P51946 1-323, S164E, phosphothreonine at 170)
[3] = target: Cdk7(S164A)/Cyclin H binary complex (human, UniProt P50613 2-346; P51946 1-323, S164A, phosphothreonine at 170)

Kd [1]: 0.6 nM
B1: VHH_(RD7-04), form for biochemical studies (VHH)
VHH: QVQLVESGGGLVQPGGSLRLSCVASGFTFKNFYMGWVRQAPDKGLEWVATINSGGEIQSYADSVKGRFTISRDNAKNTLYLQMNNLRPEDTAVYYCSKQSSTPAKGQGTQVTVSS

Kd [2]: 7.3 nM
Kd [3]: 10.8 nM
B2: MBP-Mat1_(230-309) (domain or fragment)
chain: T1 chain 3

— paper PMC11297931 (2024)
